What is called stoichiometry N is the number of molecules, sites or subunits per partner or assembly.

In the experiment the target is HexaPro, recombinant SARS-CoV-2 spike protein vaccine candidate (SARS-CoV-2) (UniProt P0DTC2). The experiment can be described thus: SEC; […], PBS ([…], pH 6.5), 1.25 mL/min, […]. (In general: SEC sorts molecules by how far they enter the pores of the column.)

With “HexaPro, recombinant SARS-CoV-2 spike protein vaccine candidate (from UniProt P0DTC2 14-1273) (natural protein)”, the stoichiometry N came out at 3.

(Values after article PMC12846601.)
